Measured values reported in patent US9964541B2, “Method and devices for capturing circulating tumor” (THE BOARD OF TRUSTEES OF THE UNIVERSITY OF ILLINOIS, priority 2009, dated 2018).

System: P-selectin antibody
Assay: SPR antibody binding to oriented versus randomly immobilized P-selectin
Conditions: 20 μg/mL P-selectin antibody, 20 μL/min; compared to randomly immobilized P-selectin, comparable amounts immobilized
Procedure: Enhanced controllability of surfaces by covalent immobilization: Previously, we have shown the surfaces with covalently immobilized P-selectin present enhanced functional stability by approximately 10 times, as compared to those with physisorbed P-selectin. The surface stability was assessed using cell-mimicking microspheres as well as live neutrophils. We also developed immobilization chemistries (as shown FIG. 5) on gold coated, […] PEGylated surfaces to employ the flow-based SPR technique that quantitatively analyze the surface functions, offering: 1) easy surface functionalization using thiol chemistries due to the presence of a gold layer and 2) quantitative and real time monitoring of binding events without any modification of analytes. Thus, the SPR technique is useful particularly for determining controllability of density and orientation of P-selectin. The chemistries described in FIG. 5 were developed to achieve non-fouling surfaces and to provide reactive sites for subsequent P-selectin immobilization using oligo(ethylene glycol)-alkanethiols (Prochimia, Poland) on gold coated SPR chips. Briefly, the gold chip surface was cleaned before the subsequent formation of mixed self assembled monolayers (SAMs) by washing with absolute ethanol and drying by nitrogen blowing. […]

B1: oriented P-selectin: P-selectin biotinylated at its single cysteine, immobilized through biotin-streptavidin binding on OEG-biotin SAM (protein, UniProt P16109 42-830, looked up)
P-selectin: WTYHYSTKAYSWNISRKYCQNRYTDLVAIQNKNEIDYLNKVLPYYSSYYWIGIRKNNKTWTWVGTKKALTNEAENWADNEPNNKRNNEDCVEIYIKSPSAPGKWNDEHCLKKKHALCYTASCQDMSCSKQGECLETIGNYTCSCYPGFYGPECEYVRECGELELPQHVLMNCSHPLGNFSFNSQCSFHCTDGYQVNGPSKLECLASGIWTNKPPQCLAAQCPPLKIPERGNMTCLHSAKAFQHQSSCSFSCEEGFALVGPEVVQCTASGVWTAPAPVCKAVQCQHLEAPSEGTMDCVHPLTAFAYGSSCKFECQPGYRVRGLDMLRCIDSGHWSAPLPTCEAISCEPLESPVHGSMDCSPSLRAFQYDTNCSFRCAEGFMLRGADIVRCDNLGQWTAPAPVCQALQCQDLPVPNEARVNCSHPFGAFRYQSVCSFTCNEGLLLVGASVLQCLATGNWNSVPPECQAIPCTPLLSPQNGTMTCVQPLGSSSYKSTCQFICDEGYSLSGPERLDCTRSGRWTDSPPMCEAIKCPELFAPEQGSLDCSDTRGEFNVGSTCHFSCDNGFKLEGPNNVECTTSGRWSATPPTCKGIASLPTPGVQCPALTTPGQGTMYCRHHPGTFGFNTTCYFGCNAGFTLIGDSTLSCRPSGQWTAVTPACRAVKCSELHVNKPIAMNCSNLWGNFSYGSICSFHCLEGQLLNGSAQTACQENGHWSTTVPTCQAGPLTIQEALTYFGGAVASTIGLIMGGTLLALLRKRFRQKDDGKCPLNPHSHLGTYGVFTNAAFDPSP
modifications: biotinylated at cysteine
  antibody binding response: significantly greater binding response
